Among the data in US20260224701A1 (University of Texas, published 2026) are Kd values, retold here.

Common to all, as to test: biolayer interferometry (Octet), antibody captured on the probe, extracellular domain in solution
For orientation: Biolayer interferometry detects binding as a change in optical thickness at a sensor tip.

For assay [1], the target named is T1, human 2Ig-B7-H3 extracellular domain (human, UniProt Q5ZPR3 29-466).
T1 chain: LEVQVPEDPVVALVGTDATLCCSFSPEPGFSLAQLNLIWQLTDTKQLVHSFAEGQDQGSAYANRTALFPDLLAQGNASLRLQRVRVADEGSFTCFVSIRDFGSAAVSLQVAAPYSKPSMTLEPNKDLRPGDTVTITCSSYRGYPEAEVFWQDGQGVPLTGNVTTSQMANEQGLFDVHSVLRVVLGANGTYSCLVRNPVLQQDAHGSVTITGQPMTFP

For assay [2], the target named is T2, Cynomolgus 4Ig-B7-H3 extracellular domain (cynomolgus).
T2 construct: extracellular domain; Bought protein; also called Cynomolgus 4Ig-B7H-3 protein
The protocol: (§1) The extracellular domains of the indicated 4Ig-B7-H3 and 2Ig-B7-H3 proteins were purchased from R&D systems. All proteins were validated by the vendor to be both pure and functional. KD values were determined utilizing capture biolayer interferometry (Octet, Molecular Devices) in “affinity” mode, wherein the […] antibody was captured on the tip of the probe and placed into solutions containing different concentrations of target extracellular domain.

The target of assay [3] is T3, Porcine 4Ig-B7-H3 extracellular domain (porcine, UniProt A0A287AJ27 27-466).
T3 construct: extracellular domain; Bought protein; also called Porcine 4Ig-B7H-3 protein
The method, then: as §1

B1: MIL33B chimeric antibody (full-length IgG) (antibody, V domains shown)
VH: EVQLQQSGPELVKPGASVKMSCKASGYTFTSYVMHWVRQSPGQGLEGIGYINSYSDGTKYNEKFKGKATLTSDKSSSTAYMELSGLTSEDSAVYYCARWGGLGNGAMDYWGQGTSVTVSS
VL: QIVLTQSPAIMSASPGEKVTMTCSVSSSVNYMHWYQQKSGTSPKRWIYDTSKLASGVPARFSASGSGTSYSLTISSMEAEDAATYYCQQWTSNPLTFGAGTKLELKR
notes: also called Chimeric VH + VL; MIL33B-chimera
Regarding B1, the dissociation constant Kd – broadly, the constant that tells how readily two partners part at equilibrium – in assay [1] was found to be 13.2 nM.

B2: MIL33B-H1-hIgG1 (antibody, V domains shown)
VH: QVQLVQSGAEVKKPGASVKVSCKASGYTFTSYVMHWVRQAPGQRLEWMGYINSYSDGTKYNEKFKGRVTITSDTSASTAYMELSSLRSEDTAVYYCARWGGLGNGAMDYWGQGTLVTVSS
VL: EIVLTQSPATLSLSPGERATLSCSVSSSVNYMHWYQQKPGQAPRRLIYDTSKLASGIPARFSGSGSGTDYTLTISSLEPEDFAVYYCQQWTSNPLTFGQGTKLEIK
notes: also called AHF15945; AHF 15945
In the case of B2, the affinity in assay [1], expressed as Kd, was 21.6 nM.

B3: MIL33B-H2-hIgG1 (antibody, V domains shown)
VH: QVQLVQSGAEVKKPGASVKVSCKASGYTFTSYVMHWVRQAPGQRLEWMGYINSYSDGTKYNEKFKGRATITRDTSASTAYMELSSLRSEDTAVYYCARWGGLGNGAMDYWGQGTLVTVSS
VL: EIVLTQSPATLSLSPGERATLSCSVSSSVNYMHWYQQKPGQAPRRLIYDTSKLASGIPARFSGSGSGTDYTLTISSLEPEDFAVYYCQQWTSNPLTFGQGTKLEIK
notes: also called AHF15938; AHF 15938
In turn, B3 returned an equilibrium dissociation constant (Kd) in assay [1] of 14 nM.

B4: MIL33B-H3-hIgG1 (antibody, V domains shown)
VH: QVQLVQSGAEVKKPGASVKVSCKASGYTFTSYVMHWVRQAPGQRLEWMGYINSYSDGTKYNEKFKGRVTITRDTSASTAYMELSSLRSEDTAVYYCARWGGLGNGAMDYWGQGTLVTVSS
VL: EIVLTQSPATLSLSPGERATLSCSVSSSVNYMHWYQQKPGQAPRRLIYDTSKLASGIPARFSGSGSGTDYTLTISSLEPEDFAVYYCQQWTSNPLTFGQGTKLEIK
notes: also called hMIL33B-H3; humanized MIL33B-H3
Take B4: the dissociation constant (Kd) in assay [2] is 0.28 nM; in assay [3] it was 0.559 nM; in assay [1], 43.5 nM.
